The source of these data is PMC6535546, “Novel Carbapenemases FLC-1 and IMI-2 Encoded by an Enterobacter cloacae Complex Isolated from Food Products” (Antimicrobial Agents and Chemotherapy, 2019).

For data set [1], the target named is T1, FLC-1 (FRI-like carbapenemase-1) (Enterobacter cloacae, UniProt A0A2I5JVQ1).
T1 construct: gene bla; plasmid p3442-FLC-1 gene cloned in pBAD-FLC, expressed in E. coli LMG194; unpurified soluble (cytoplasmic) fraction; about 33 kDa
Kind of data set: nitrocefin hydrolysis inhibition. The data set is classed as biochemical. On the procedure:
nitrocefin hydrolysis inhibition on FLC-1 (FRI-like carbapenemase-1) | the inhibition of FLC-1 enzymatic activity by clavulanic acid was tested

Data set [2] deals with C[C@@H](O)[C@H]1C(=O)N2C(C(=O)O)=C(S[C@@H]3CN[C@H](C(=O)N(C)C)C3)[C@H](C)[C@H]12. Kind of data set: cells, lysate or membranes. The data set is classed as biochemical, Enterobacter cloacae. The following applies: PBS, 0.01% Triton X-100, pH 7.4, 23°C, cytoplasmic fraction of E. coli LMG194 producing FLC-1.
In data set [3] the test system is CC1(C)S[C@@H]2[C@H](NC(=O)[C@H](N)c3ccccc3)C(=O)N2[C@H]1C(=O)O. As to the kind of experiment: cells, lysate or membranes. It counts as biochemical, Enterobacter cloacae. To be noted: PBS, 0.01% Triton X-100, pH 7.4, 23°C, cytoplasmic fraction of E. coli LMG194 producing FLC-1.
In data set [4] the test system is CO/N=C(\C(=O)N[C@@H]1C(=O)N2C(C(=O)O)=C(COC(C)=O)CS[C@H]12)c1csc(N)n1. Kind of data set: cells, lysate or membranes. The data set is classed as biochemical, Enterobacter cloacae. The following applies: PBS, 0.01% Triton X-100, pH 7.4, 23°C, cytoplasmic fraction of E. coli LMG194 producing FLC-1.
Data set [5] deals with C[C@@H](O)[C@H]1C(=O)N2C(C(=O)O)=C(SCCN=CN)C[C@H]12. As to the kind of experiment: cells, lysate or membranes. The data set is classed as biochemical, Enterobacter cloacae. The following applies: PBS, 0.01% Triton X-100, pH 7.4, 23°C, cytoplasmic fraction of E. coli LMG194 producing FLC-1.
Data set [6] relates to C[C@@H](O)[C@H]1C(=O)N2C(C(=O)O)=C(S[C@@H]3CN[C@H](C(=O)Nc4cccc(C(=O)O)c4)C3)[C@H](C)[C@H]12. Kind of data set: cells, lysate or membranes. The following applies: PBS, 0.01% Triton X-100, pH 7.4, 23°C, cytoplasmic fraction of E. coli LMG194 producing FLC-1. The data set is classed as biochemical, Enterobacter cloacae.

T1 sequence (A0A2I5JVQ1 entry or part of it): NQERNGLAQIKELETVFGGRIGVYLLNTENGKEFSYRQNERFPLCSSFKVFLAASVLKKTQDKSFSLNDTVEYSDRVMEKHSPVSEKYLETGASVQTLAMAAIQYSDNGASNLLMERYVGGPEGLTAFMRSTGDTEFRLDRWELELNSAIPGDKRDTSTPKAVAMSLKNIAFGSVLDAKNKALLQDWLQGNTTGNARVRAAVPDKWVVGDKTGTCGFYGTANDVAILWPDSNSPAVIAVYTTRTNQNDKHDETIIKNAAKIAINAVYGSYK

As for `O=C(O)[C@H]1/C(=C/CO)O[C@@H]2CC(=O)N21` [clavulanic acid], the IC50 in data set [1] was determined as 1970 ± 90 nM.
For the compound “FLC-1 (FRI-like carbapenemase-1) (Enterobacter cloacae)”, the Km is 32.4 ± 9.3 µM in data set [2]; 1,649 ± 174.2 μM in data set [3]; 377.1 ± 110.6 µM in data set [4]; 177.2 ± 12.5 µM in data set [5]; 29.6 ± 11.7 µM in data set [6].

A word on the IC50: it is the concentration needed to halve the response being measured. Higher therefore signals weaker potency in that assay. By Km is commonly meant the substrate concentration at which the rate is half of its maximum.
